How the values were obtained:
Test in all cases: EMSA
Details in all cases: EMSA: 10 nM 6-FAM oligo, 50 mM HEPES pH 7.5, 250 mM NaCl, 1 mM DTT, 2.5 mM EDTA, 10% glycerol, on ice 10 min, 8% native PAGE; sumo-rA3G after heavy RNase A/T1 …
[1] = test system: rA3G WT (parental construct, R8 K128D) (Macaca mulatta)
[2] = test system: rA3G rM13 (Macaca mulatta)
[3] = test system: rA3G E/Q (Macaca mulatta)
[4] = test system: rA3G rM9 (Macaca mulatta)
[5] = test system: rA3G rM10 (Macaca mulatta)
[6] = test system: rA3G rM15 (Macaca mulatta)
[7] = test system: rA3G rM12 (Macaca mulatta)
[8] = test system: rA3G R24T (Macaca mulatta)
[9] = test system: rA3G rM14 (Macaca mulatta)
[10] = test system: rA3G rM11 (Macaca mulatta)

Substance | Kd [1] | Kd [2] | Kd [3] | Kd [4] | Kd [5] | Kd [6] | Kd [7] | Kd [8] | Kd [9] | Kd [10]
50 nt ssRNA | 22 nM | 43 nM | 19 nM | 20 nM | 24 nM | 21 nM | 52 nM | 21 nM | 15 nM | 21 nM
50 nt ssDNA | 24 nM | 155 nM | 10 nM | 74 nM | 53 nM | 71 nM | 188 nM | 51 nM | 102 nM | 89 nM
